Measurements taken from article PMC5497066.

How the values were obtained:
[1] = target: single-ring mutant of GroEL, SR1 (E. coli), P0A6F5
[2] = target: single-ring truncation mutant, SRΔ526 (E. coli); assay: protease protection (encapsulation); denatured PepQ-24F (100 nM) bound to wild-type or Δ526 GroEL-GroES-ADP bullets (200 nM) or full-length or Δ526 single-ring GroEL (300 nM) with GroES (600 nM); single turnover with ATP (2 mM), quenched after 10 s; unencapsulated PepQ digested with Proteinase K; SDS-PAGE, fluorescein scan

Row | observed folding rate constant of PepQ by recovery of enzymatic activity, bound to SR1 (300 nM) and refolded with GroES (600 nM) and ATP (2 mM) [1] [min⁻¹] | early escape compared to SR1 [2] [%] | Binder
1 | 0.62 | – | wild type E. coli PepQ, P21165 1-443 (enzyme) MESLASLYKNHIATLQERTRDALARFKLDALLIHSGELFNVFLDDHPYPFKVNPQFKAWVPVTQVPNCWLLVDGVNKPKLWFYLPVDYWHNVEPLPTSFWTEDVEVIALPKADGIGSLLPAARGNIGYIGPVPERALQLGIEASNINPKGVIDYLHYYRSFKTEYELACMREAQKMAVNGHRAAEEAFRSGMSEFDINIAYLTATGHRDTDVPYSNIVALNEHAAVLHYTKLDHQAPEEMRSFLLDAGAEYNGYAADLTRTWSAKSDNDYAQLVKDVNDEQLALIATMKAGVSYVDYHIQFHQRIAKLLRKHQIITDMSEEAMVENDLTGPFMPHGIGHPLGLQVHDVAGFMQDDSGTHLAAPAKYPYLRCTRILQPGMVLTIEPGIYFIESLLAPWREGQFSKHFNWQKIEALKPFGGIRIEDNVVIHENNVENMTRDLKLA
2 | – | < 10 | PepQ-24F (enzyme, fluorescein (5-iodoacetamidofluorescein) on the cysteine at position 24) MESLASLYKNHIATLQERTRDALCRFKLDALLIHSGELFNVFLDDHPYPFKVNPQFKAWVPVTQVPNCWLLVDGVNKPKLWFYLPVDYWHNVEPLPTSFWTEDVEVIALPKADGIGSLLPAARGNIGYIGPVPERALQLGIEASNINPKGVIDYLHYYRSFKTEYELACMREAQKMAVNGHRAAEEAFRSGMSEFDINIAYLTATGHRDTDVPYSNIVALNEHAAVLHYTKLDHQAPEEMRSFLLDAGAEYNGYAADLTRTWSAKSDNDYAQLVKDVNDEQLALIATMKAGVSYVDYHIQFHQRIAKLLRKHQIITDMSEEAMVENDLTGPFMPHGIGHPLGLQVHDVAGFMQDDSGTHLAAPAKYPYLRCTRILQPGMVLTIEPGIYFIESLLAPWREGQFSKHFNWQKIEALKPFGGIRIEDNVVIHENNVENMTRDLKLA
